From patent US20210315992A1, “ADJUVANT EFFECT OF THE TLR1/2 AGONIST DIPROVOCIM SYNERGIZES WITH CHECKPOINT-INHIBITING ANTIBODIES TO ELIMINATE DISEASE” (The Board of Regents of the University of Texas System, priority 2018, published 2021)

How the values were obtained:
B16-OVA melanoma [1] = experiment: B16-OVA melanoma, pre-tumor treatment (immunization on day of tumor inoculation); type: in vivo, mouse
Procedure: FIG. 4A through FIG. 4J illustrate inhibition of B16-OVA tumor growth by pre- or post-tumor treatment with Diprovocim-adjuvanted tumor vaccination and checkpoint blockade. FIG. 4A provides a schematic of pre- and post-tumor treatment protocols. C57BL/6J mice (n=8 mice per treatment) were injected s.c. with 2×10^5 B16-OVA melanoma cells on day 0. For pre-tumor treatment, mice were immunized i.m. with OVA (100 μg) mixed with vehicle or Diprovocim (10 mg/kg) or alum (2 mg/kg) on the same day prior to tumor injection. Mice received a booster immunization seven days later in which anti-PD-L1 (200 μg) was administered on days 3, 6 and 9 after tumor inoculation by i.p. injection. For post-tumor treatment, initial immunization was on day 3 after tumor inoculation, with a booster seven days later. Anti-PD-L1 (200 μg) was administered on days 3, 6, 9, 12, and 15 after tumor inoculation by i.p. injection. FIG. 4B through FIG. 4F illustrate pre-tumor treatment results. Tumor volume (FIG. 4B and FIG. 4D) and percent mouse survival (survivors/total mice) (FIG. 4C and FIG. 4E). […] FIG. 4G through FIG. 4J illustrate a comparison of pre-tumor (FIG. 4G and FIG. 4H) vs. post-tumor treatment (FIG. 4I and FIG. 4J). Tumor volume (FIG. 4G and FIG. 4I) and percent mouse survival (survivors/total mice) (FIG. 4H and FIG. 4J) are shown. P values for tumor volume analysis apply to the final time point as indicated in graphs and were calculated by Student's t test. P values for survival analysis were calculated by Kaplan-Meier analysis. All results are representative of two independent studies.
C57BL/6J mice (n=8) were injected s.c. with 2×10^5 B16-OVA melanoma cells on day 0. Anti-PD-L1 (200 μg) or mouse IgG2a isotype control antibody was administered on days 3, 6 and 9 after tumor inoculation by i.p. injection. FIG. 8A is a graph of tumor volume versus time and FIG. 8B is a graph showing percent mouse survival (survivors/total mice) versus time. The control values in both plots are shown above those for the anti-PD-L1 values where the two values diverge. […] Results are representative of two independent studies.
B16-OVA cells (B16F10 melanoma cells stably expressing chicken ovalbumin) were grown in DMEM containing 10% vol/vol FBS. A total of 2×10^5 B16-OVA cells in 100 μL PBS were injected s.c. into the right flank of 8-12 week old male C57BL/6J mice to establish tumors (n=8 mice per group). For pretreatment, 10 mg/kg Diprovocim-1 or 2 mg/kg alum with or without OVA (100 μg) was injected i.m. into mice on the same day as tumor inoculation (day 0). Mice received a booster shot seven days after the first immunization. On day 3, 6 and 9, some groups were injected i.p. with 200 μg checkpoint inhibitor (anti-mPD-L1, BioXcell) in 100 μl saline.
Tumors were measured with a digital caliper (Fisher) and the tumor sizes were calculated using the following formula: volume=0.5×length×width^2. Mice were sacrificed when the tumor length or width reached 2 cm.

B16-OVA melanoma [2] = experiment: B16-OVA melanoma, post-tumor treatment (immunization day 3 after tumor inoculation); type: in vivo, mouse; details: immunization three days after tumor inoculation, plus anti-PD-L1
Procedure: C57BL/6J mice (n=8 mice per treatment) were injected s.c. with 2×10^5 B16-OVA melanoma cells on day 0. For pre-tumor treatment, mice were immunized i.m. with OVA (100 μg) mixed with vehicle or Diprovocim (10 mg/kg) or alum (2 mg/kg) on the same day prior to tumor injection. Mice received a booster immunization seven days later in which anti-PD-L1 (200 μg) was administered on days 3, 6 and 9 after tumor inoculation by i.p. injection. For post-tumor treatment, initial immunization was on day 3 after tumor inoculation, with a booster seven days later. Anti-PD-L1 (200 μg) was administered on days 3, 6, 9, 12, and 15 after tumor inoculation by i.p. injection. […] P values for tumor volume analysis apply to the final time point as indicated in graphs and were calculated by Student's t test. P values for survival analysis were calculated by Kaplan-Meier analysis. All results are representative of two independent studies.
For post-treatment, 10 mg/kg Diprovocim-1 or 2 mg/kg Alum with OVA (100 μg) was injected i.m. into mice on day 3 after tumor inoculation. Mice received a booster shot seven days after the first immunization. On day 3, 6, 9, 12 and 15 after tumor inoculation, mice were also injected i.p. with 200 μg anti-mPD-L1 in 100 μl saline.
Tumors were measured with a digital caliper (Fisher) and the tumor sizes were calculated using the following formula: volume=0.5×length×width^2. […]

[3] = system: OVA peptide-pulsed target cells; experiment: In vivo CTL killing assay; parameters: species or system mouse; details: i.m. immunization, 100 μg OVA, Diprovocim 10 mg/kg; target cells i.v. day 7, read two days later
OT-I CD8 T cells = experiment: Cross-priming of CD8 T cells (CD69 on OT-I CD8 T cells co-cultured with DCs of immunized mice); type: in vivo, mouse; details: DCs 24 hours after i.m. immunization, 24 hours co-culture
Procedure: C57BL/6J male mice were injected i.m. with 100 μg OVA mixed with vehicle or with 10 mg/kg Diprovocim (n=4 mice per treatment). 24 hours later, DCs from draining lymph nodes and spleen were purified by Mouse Pan Dendritic Cell Isolation Kit (Miltenyi Biotech). CD8 T cells from OT-I transgenic mice were purified by Mouse CD8+ T Cell Isolation Kit (Miltenyi Biotech). 3×10^5 DCs were co-cultured with 3×10^5 OT-I CD8 T cells in RPMI medium containing 10% vol/vol FBS and 1% vol/vol penicillin and streptomycin for 24 hours. Then, cells were collected and stained with anti-mouse CD3-FITC, anti-mouse CD8-BV510, and anti-mouse CD69-PE-CF594 (BioLegend) for 45 minutes. Then, the cells were washed twice with PBS. Stained cells were analyzed with an LSRII instrument and the flow cytometry data were analyzed using FlowJo software.

[4] = immunization on day of tumor inoculation, plus anti-PD-L1

B1: OVA: EndoFit ovalbumin, Invivogen; immunogen, given mixed with vehicle when without adjuvant (protein, UniProt P01012 2-386, looked up)
Ovalbumin: GSIGAASMEFCFDVFKELKVHHANENIFYCPIAIMSALAMVYLGAKDSTRTQINKVVRFDKLPGFGDSIEAQCGTSVNVHSSLRDILNQITKPNDVYSFSLASRLYAEERYPILPEYLQCVKELYRGGLEPINFQTAADQARELINSWVESQTNGIIRNVLQPSSVDSQTAMVLVNAIVFKGLWEKAFKDEDTQAMPFRVTEQESKPVQMMYQIGLFRVASMASEKMKILELPFASGTMSMLVLLPDEVSGLEQLESIINFEKLTEWTSSNVMEERKIKVYLPRMKMEEKYNLTSVLMAMGITDVFSSSANLSGISSAESLKISQAVHAAHAEINEAGREVVGSAEAGVDAASVSEEFRADHPFLFCIKHIATNAVLFFGRCVSP
B16-OVA melanoma [1]; [4]
  average survival time: 24 days
  mice died by 38 days after tumor inoculation: 100%
B16-OVA melanoma [1]; single agent, no anti-PD-L1, i.m. day 0 and booster day 7
  tumor growth rates and survival times compared with vehicle alone: similar
B16-OVA melanoma [2]
  average survival time: 22 days
[3]
  target cells eliminated: about 10%
OT-I CD8 T cells
  activation (CD69 upregulation) of OT-I CD8 T cells by DCs of immunized mice: failed to induce CD69 expression
